Experimental data from patent publication US8338123B2, “Food production process” (DSM IP Assets B.V., priority 2002, dated 2012).

Tests used:
[1] = test system: humans; conditions: life-long exposure, daily uptake 1.6 ug acrylamide/kg; cited from earlier work
[2] = substrate: NC(=O)C[C@H](N)C(=O)O; experiment: purified protein, by the assay type; conditions: other: substrate L-asparagine, pH 5.5, 37° C.

With `C=CC(N)=O` [acrylamide] as the molecule, how does the cancer risk [1] read?
Its cancer risk is 7*10^−3.

B1: Aspergillus niger asparaginase ASPA01, SEQ ID NO: 3 (Aspergillus niger CBS 513.88) (protein)
chain: SPLLYSRTTNETFVFTNANGLNFTQMNTTLPNVTIFATGGTIAGSDSSSTATTGYTSGAVGVLSLIDAVPSMLDVANVAGVQVANVGSEDITSDILISMSKKLNRVVCEDPTMAGAVITHGTDTLEETAFFLDATVNCGKPIVIVGAMRPSTAISADGPFNLLEAVTVAASTSARDRGAMVVMNDRIASAYYVTKTNANTMDTFKAMEMGYLGEMISNTPFFFYPPVKPTGKVAFDITNVTEIPRVDILFSYEDMHNDTLYNAISSGAQGIVIAGAGAGGVTTSFNEAIEDVINRLEIPVVQSMRTVNGEVPLSDVSSDTATHIASGYLNPQKSRILLGLLLSQGKNITEIADVFALGTDA
Which results are given for B1?
Km [2]: 2400 ± 300 µM; Vmax [2]: 1100 µmol/min/mg
